What was measured:
HeLa Kyoto [1] = assay: solubility in G1/S (NP-40 vs SDS abundance) (log2 ratio); higher = more soluble; details: cell cycle stage: G1/S
HeLa Kyoto [2] = assay: thermal stability score vs G1/S (z-score of summed log2 fold changes over temperatures); higher = more thermally stable than in G1/S
HeLa Kyoto [3] = assay: solubility change mitosis vs G1/S (difference of NP-40 vs SDS log2 ratios) (log2 ratio difference); higher = more soluble in mitosis
HeLa Kyoto [4] = assay: melting temperature (median over replicates), in situ; higher = more thermally stable
[5] = cell cycle stage: early G1 (4.5 h after nocodazole release)
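For melting temperature (median over replicates), in situ in this document: HeLa Kyoto cells synchronized by double thymidine or nocodazole block, proteins quantified by TMT10plex mass spectrometry, three independent biological replicates.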
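For solubility change mitosis vs G1/S (difference of NP-40 vs SDS log2 ratios) in this document: synchronized HeLa Kyoto cells (double thymidine block for G1/S, nocodazole release for mitosis), protein amounts in NP-40 versus SDS lysates quantified by mass spectrometry, three biological replicates.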
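For solubility in G1/S (NP-40 vs SDS abundance) in this document: HeLa Kyoto cells arrested at G1/S by double thymidine block, proteins quantified by TMT10plex mass spectrometry in mild NP-40 versus SDS extracts, three biological replicates.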
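For thermal stability score vs G1/S (z-score of summed log2 fold changes over temperatures) in this document: synchronized HeLa Kyoto cells, proteins quantified by TMT10plex mass spectrometry, three biological replicates, mitosis taken 0.5 h after nocodazole release, G1/S directly after double thymidine block.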

Row | Sequence | solubility in G1/S (log2) (HeLa Kyoto [1]) | thermal stability score (HeLa Kyoto [2]; [5]) | thermal stability score (HeLa Kyoto [2]; cell cycle stage: mitosis) | solubility change mitosis (log2) (HeLa Kyoto [3]) | melting temperature (HeLa Kyoto [4]; cell cycle stage: G1/S) [°C] | melting temperature (HeLa Kyoto [4]; cell cycle stage: mitosis) [°C]
1 | MSGQPPPPPPQQQQQQQQLSPPPPAALAPVSGVVLPAPPAVSAGSSPAGSPGGGAGGEGLGAAAAALLLHPPPPPPPATAAPPPPPPPPPPPASAAAPASGPPAPPGLAAGPGPAGGAPTPALVAGSSAAAPFPHGDSALNEQEKELQRRLKRLYPAVDEQETPLPRSWSPKDKFSYIGLSQNNLRVHYKGHGKTPKDAASVRATHPIPAACGIYYFEVKIVSKGRDGYMGIGLSAQGVNMNRLPGWDKHSYGYHGDDGHSFCSSGTGQPYGPTFTTGDVIGCCVNLINNTCFYTKNGHSLGIAFTDLPPNLYPTVGLQTPGEVVDANFGQHPFVFDIEDYMREWRTKIQAQIDRFPIGDREGEWQTMIQKMVSSYLVHHGYCATAEAFARSTDQTVLEELASIKNRQRIQKLVLAGRMGEAIETTQQLYPSLLERNPNLLFTLKVRQFIEMVNGTDSEVRCLGGRSPKSQDSYPVSPRPFSSPSMSPSHGMNIHNLASGKGSTAHFSGFESCSNGVISNKAHQSYCHSNKHQSSNLNVPELNSINMSRSQQVNNFTSNDVDMETDHYSNGVGETSSNGFLNGSSKHDHEMEDCDTEMEVDSSQLRRQLCGGSQAAIERMIHFGRELQAMSEQLRRDCGKNTANKKMLKDAFSLLAYSDPWNSPVGNQLDPIQREPVCSALNSAILETHNLPKQPPLALAMGQATQCLGLMARSGIGSCAFATVEDYLH [RANBP9] | 0.115 | -0.277 | -0.378 | -0.126 | 51.6 | 51.1
2 | MSGQSLTDRITAAQHSVTGSAVSKTVCKATTHEIMGPKKKHLDYLIQCTNEMNVNIPQLADSLFERTTNSSWVVVFKSLITTHHLMVYGNERFIQYLASRNTLFNLSNFLDKSGLQGYDMSTFIRRYSRYLNEKAVSYRQVAFDFTKVKRGADGVMRTMNTEKLLKTVPIIQNQMDALLDFNVNSNELTNGVINAAFMLLFKDAIRLFAAYNEGIINLLEKYFDMKKNQCKEGLDIYKKFLTRMTRISEFLKVAEQVGIDRGDIPDLSQAPSSLLDALEQHLASLEGKKIKDSTAASRATTLSNAVSSLASTGLSLTKVDEREKQAALEEEQARLKALKEQRLKELAKKPHTSLTTAASPVSTSAGGIMTAPAIDIFSTPSSSNSTSKLPNDLLDLQQPTFHPSVHPMSTASQVASTWGDPFSATVDAVDDAIPSLNPFLTKSSGDVHLSISSDVSTFTTRTPTHEMFVGFTPSPVAQPHPSAGLNVDFESVFGNKSTNVIVDSGGFDELGGLLKPTVASQNQNLPVAKLPPSKLVSDDLDSSLANLVGNLGIGNGTTKNDVNWSQPGEKKLTGGSNWQPKVAPTTAWNAATMAPPVMAYPATTPTGMIGYGIPPQMGSVPVMTQPTLIYSQPVMRPPNPFGPVSGAQIQFM [PICALM] | 0.0523 | -1.28 | -1.63 | -0.0327 | 53.7 | 53.1
3 | MSGRSKRESRGSTRGKRESESRGSSGRVKRERDREREPEAASSRGSPVRVKREFEPASAREAPASVVPFVRVKREREVDEDSEPEREVRAKNGRVDSEDRRSRHCPYLDTINRSVLDFDFEKLCSISLSHINAYACLVCGKYFQGRGLKSHAYIHSVQFSHHVFLNLHTLKFYCLPDNYEIIDSSLEDITYVLKPTFTKQQIANLDKQAKLSRAYDGTTYLPGIVGLNNIKANDYANAVLQALSNVPPLRNYFLEEDNYKNIKRPPGDIMFLLVQRFGELMRKLWNPRNFKAHVSPHEMLQAVVLCSKKTFQITKQGDGVDFLSWFLNALHSALGGTKKKKKTIVTDVFQGSMRIFTKKLPHPDLPAEEKEQLLHNDEYQETMVESTFMYLTLDLPTAPLYKDEKEQLIIPQVPLFNILAKFNGITEKEYKTYKENFLKRFQLTKLPPYLIFCIKRFTKNNFFVEKNPTIVNFPITNVDLREYLSEEVQAVHKNTTYDLIANIVHDGKPSEGSYRIHVLHHGTGKWYELQDLQVTDILPQMITLSEAYIQIWKRRDNDETNQQGA [USP39] | -0.4 | -0.187 | -0.193 | 0.178 | 51.4 | 51.9
4 | MSGSFELSVQDLNDLLSDGSGCYSLPSQPCNEVTPRIYVGNASVAQDIPKLQKLGITHVLNAAEGRSFMHVNTNANFYKDSGITYLGIKANDTQEFNLSAYFERAADFIDQALAQKNGRVLVHCREGYSRSPTLVIAYLMMRQKMDVKSALSIVRQNREIGPNDGFLAQLCQLNDRLAKEGKLKP [DUSP3] | 0.676 | 0.0996 | -0.0543 | 0.131 | 50.4 | 51
5 | MSGTSSHESFYDSLSDMQEESKNTDFFPGLSAFLSQEEINKSLDLARRAIADSETEDFDSEKEISQIFSTSPASLCEHPSHKETKLGEHASRRPQDNRSTPVQPLAEKQTKSISSPVSKRKPAMSPLLTRPSYIRSLRKAEKRGAKTPSTNVKPKTPHQRKGGPQSQLCDKAANLIEELTSIFKAAKPRNRSPNGESSSPDSGYLSPKNQPSALLSASASQSPMEDQGEMEREVKSPGARHCYQDNQDLAVPHNRKSHPQPHSALHFPAAPRFIQKLRSQEVAEGSRVYLECRVTGNPTPRVRWFCEGKELHNTPDIQIHCEGGDLHTLIIAEAFEDDTGRYTCLATNPSGSDTTSAEVFIEGASSTDSDSESLAFKSRAGAMPQAQKKTTSVSLTIGSSSPKTGVTTAVIQPLSVPVQQVHSPTSYLCRPDGTTTAYFPPVFTKELQNTAVAEGQVVVLECRVRGAPPLQVQWFRQGSEIQDSPDFRILQKKPRSTAEPEEICTLVIAETFPEDAGIFTCSARNDYGSATSTAQLVVTSANTENCSYESMGESNNDHFQHFPPPPPILETSSLELASKKPSEIQQVNNPELGLSRAALQMQFNAAERETNGVHPSRGVNGLINGKANSNKSLPTPAVLLSPTKEPPPLLAKPKLDPLKLQQLQNQIRLEQEAGARQPPPAPRSAPPSPPFPPPPAFPELAACTPPASPEPMSALASRSAPAMQSSGSFNYARPKQFIAAQNLGPASGHGTPASSPSSSSLPSPMSPTPRQFGRAPVPPFAQPFGAEPEAPWGSSSPSPPPPPPPVFSPTAAFPVPDVFPLPPPPPPLPSPGQASHCSSPATRFGHSQTPAAFLSALLPSQPPPAAVNALGLPKGVTPAGFPKKASRTARIASDEEIQGTKDAVIQDLERKLRFKEDLLNNGQPRLTYEERMARRLLGADSATVFNIQEPEEETANQEYKVSSCEQRLISEIEYRLERSPVDESGDEVQYGDVPVENGMAPFFEMKLKHYKIFEGMPVTFTCRVAGNPKPKIYWFKDGKQISPKSDHYTIQRDLDGTCSLHTTASTLDDDGNYTIMAANPQGRISCTGRLMVQAVNQRGRSPRSPSGHPHVRRPRSRSRDSGDENEPIQERFFRPHFLQAPGDLTVQEGKLCRMDCKVSGLPTPDLSWQLDGKPVRPDSAHKMLVRENGVHSLIIEPVTSRDAGIYTCIATNRAGQNSFSLELVVAAKEAHKPPVFIEKLQNTGVADGYPVRLECRVLGVPPPQIFWKKENESLTHSTDRVSMHQDNHGYICLLIQGATKEDAGWYTVSAKNEAGIVSCTARLDVYTQWHQQSQSTKPKKVRPSASRYAALSDQGLDIKAAFQPEANPSHLTLNTALVESEDL [PALLD] | 0.0775 | 1.21 | 3.53 | -0.0539 | 50 | 50.5
6 | MSHGPSPRLAESPQLSKGSLLTILGSPSPERMGPADSLPPTPPSGTPSPGPPPALPLPPAPALLADGDWESREELRLRELEEARARAAQMEKTMRRWSDCTANWREKWSKVRAERNRAREEVRQLRQRLDALTKELAGARRERQEAQGECEARGRELARLRGARGVADQTRDGPEPEAEREPVRDVGSERPPGSQELELVESLLKSMPEESEDCWEARSLGAGGPRGSSGRQERSRLPWEDTAATEEEASKLTALRLRLDESQKVLLKEREDKLALSRNIEKLEGELSQWKIKYEELSKTKQEMLKQLSILKEAHQDELGRMSEDLEDELGARSSMDRKMAELRGEMERLQAENAAEWGRRERLETEKLGLERENKKLRAQVGDLEEALARRRRQTASALDCDLRASQAALFEKNKELADLKHVHGKLKKQFQEKVAELAHANRRVEQHEAEVKKLRLRVEELKKELAQAEDELDEAHNQARKLQRSLDEQTEQSENLQVQLEHLQSRLRRQQQNAPLFGKIRSARFGTEEAEDGTSDLDEDEDLQIQVA [CCDC102A] | 0.448 | -0.855 | -0.192 | 0.0825 | 50.8 | 49.3
7 | MSIFPKISLRPEVENYLKEGFMNKEIVTALGKQEAERKFETLLKHLSHPPSFTTVRVNTHLASVQHVKNLLLDELQKQFNGLSVPILQHPDLQDVLLIPVIGPRKNIKKQQCEAIVGAQCGNAVLRGAHVYAPGIVSASQFMKAGDVISVYSDIKGKCKKGAKEFDGTKVFLGNGISELSRKEIFSGLPELKGMGIRMTEPVYLSPSFDSVLPRYLFLQNLPSALVSHVLNPQPGEKILDLCAAPGGKTTHIAALMHDQGEVIALDKIFNKVEKIKQNALLLGLNSIRAFCFDGTKAVKLDMVEDTEGEPPFLPESFDRILLDAPCSGMGQRPNMACTWSVKEVASYQPLQRKLFTAAVQLLKPEGVLVYSTCTITLAENEEQVAWALTKFPCLQLQPQEPQIGGEGMRGAGLSCEQLKQLQRFDPSAVPLPDTDMDSLREARREDMLRLANKDSIGFFIAKFVKCKST [NSUN6] | 0.29 | -0.273 | 0.177 | -0.179 | 51.8 | 51.4
8 | MSINLTVDIYIYLLSNARSVCGKQRSKQLYFLFSPKHYWRISHISLQRGFHTNIIRCKWTKSEAHSCSKHCYSPSNHGLHIGILKLSTSAPKGLTKVNICMSRIKSTLNSVSKAVFGNQNEMISRLAQFKPSSQILRKVSDSGWLKQKNIKQAIKSLKKYSDKSAEKSPFPEEKSHIIDKEEDIGKRSLFHYTSSITTKFGDSFYFLSNHINSYFKRKEKMSQQKENEHFRDKSELEDKKVEEGKLRSPDPGILAYKPGSESVHTVDKPTSPSAIPDVLQVSTKQSIANFLSRPTEGVQALVGGYIGGLVPKLKYDSKSQSEEQEEPAKTDQAVSKDRNAEEKKRLSLQREKIIARVSIDNRTRALVQALRRTTDPKLCITRVEELTFHLLEFPEGKGVAVKERIIPYLLRLRQIKDETLQAAVREILALIGYVDPVKGRGIRILSIDGGGTRGVVALQTLRKLVELTQKPVHQLFDYICGVSTGAILAFMLGLFHMPLDECEELYRKLGSDVFSQNVIVGTVKMSWSHAFYDSQTWENILKDRMGSALMIETARNPTCPKVAAVSTIVNRGITPKAFVFRNYGHFPGINSHYLGGCQYKMWQAIRASSAAPGYFAEYALGNDLHQDGGLLLNNPSALAMHECKCLWPDVPLECIVSLGTGRYESDVRNTVTYTSLKTKLSNVINSATDTEEVHIMLDGLLPPDTYFRFNPVMCENIPLDESRNEKLDQLQLEGLKYIERNEQKMKKVAKILSQEKTTLQKINDWIKLKTDMYEGLPFFSKL [PNPLA8] | 0.117 | -0.78 | -0.701 | -0.0941 | 53.6 | 54
9 | MSISSDEVNFLVYRYLQESGFSHSAFTFGIESHISQSNINGALVPPAALISIIQKGLQYVEAEVSINEDGTLFDGRPIESLSLIDAVMPDVVQTRQQAYRDKLAQQQAAAAAAAAAAASQQGSAKNGENTANGEENGAHTIANNHTDMMEVDGDVEIPPNKAVVLRGHESEVFICAWNPVSDLLASGSGDSTARIWNLSENSTSGSTQLVLRHCIREGGQDVPSNKDVTSLDWNSEGTLLATGSYDGFARIWTKDGNLASTLGQHKGPIFALKWNKKGNFILSAGVDKTTIIWDAHTGEAKQQFPFHSAPALDVDWQSNNTFASCSTDMCIHVCKLGQDRPIKTFQGHTNEVNAIKWDPTGNLLASCSDDMTLKIWSMKQDNCVHDLQAHNKEIYTIKWSPTGPGTNNPNANLMLASASFDSTVRLWDVDRGICIHTLTKHQEPVYSVAFSPDGRYLASGSFDKCVHIWNTQTGALVHSYRGTGGIFEVCWNAAGDKVGASASDGSVCVLDLRK [TBL1XR1] | -0.0567 | -0.718 | 1.29 | -0.127 | 52.2 | 53.6

— the supplement of paper PMC5998384
